Each block holds one molecule with its values, some of them ahead of it.
Experiments:
LDH = tested on: T1, LDH; conditions: read-out: Free enzymes / Km; free enzyme; 1x TBS with 1 mM MgCl2, pH 7.5 (most assays; details in supplement)
T1 construct: gene LDHA

MDH = tested on: T2, MDH; conditions: read-out: Free enzymes / Km; free enzyme; 1x TBS with 1 mM MgCl2, pH 7.5 (most assays; details in supplement)
T2 construct: gene MDH2

[1] = tested on: O=c1ccc2nc3ccc(O[C@@H]4O[C@H](CO)[C@H](O)[C@H](O)[C@H]4O)cc3oc-2c1; test: purified protein; conditions: free enzyme; kcat not calibrated; conditions in supplement
[2] = substrate: CCn1c(=NN=c2sc3cc(S(=O)(=O)O)ccc3n2CC)sc2cc(S(=O)(=O)O)ccc21; test: Michaelis-Menten kinetics, plate reader absorbance; format: biochemical, Armoracia rusticana; conditions: free enzyme, 1x TBS with 1 mM MgCl2, pH 7.5 (most assays; details in supplement)
Source text: Michaelis-Menten kinetics, plate reader absorbance on HRP

- Km (LDH): 7.2 ± 1.3 µM
- Km (MDH): 180 ± 50 µM
Molecule: NC(=O)C1=CN([C@@H]2O[C@H](COP(=O)(O)OP(=O)(O)OC[C@H]3O[C@@H](n4cnc5c(N)ncnc54)[C@H](O)[C@@H]3O)[C@@H](O)[C@H]2O)C=CC1 [NADH]

Molecule: β-Gal (Escherichia coli K-12)
- Km [1]: 58.7 ± 16.0 µM
- kcat [1]: 8.5 ± 0.6 s⁻¹

B1: HRP (Armoracia rusticana) (protein)
chain: QLTPTFYDNSCPNVSNIVRDTIVNELRSDPRIAASILRLHFHDCFVNGCDASILLDNTTSFRTEKDAFGNANSARGFPVIDRMKAAVESACPRTVSCADLLTIAAQQSVTLAGGPSWRVPLGRRDSLQAFLDLANANLPAPFFTLPQLKDSFRNVGLNRSSDLVALSGGHTFGKNQCRFIMDRLYNFSNTGLPDPTLNTTYLQTLRGLCPLNGNLSALVDFDLRTPTIFDNKYYVNLEEQKGLIQSDQELFSSPNATDTIPLVRSFANSTQTFFNAFVEAMDRMGNITPLTGTQGQIRLNCRVVNSNS
notes: 44 kDa
- Km [2]: 2,600±400 μM
- kcat [2]: 59 ± 5 s⁻¹
